Like-named read-outs stand apart in the source and are kept apart here.
Assays:
[1] = target: recombinant water-soluble 'empty' HLA-DR4 (DRB1*0401) (human)
[2] = target: recombinant water-soluble 'empty' HLA-DR1 (DRB1*0101) (human); test: competitive binding ELISA on recombinant HLA-DR1; competitor biotinylated YEAK
[3] = target: HLA-DR1 purified from human homozygous EBV-transformed B cell lines (human); test: size-exclusion column of YEAK incubated with an excess of HLA-DR purified from B cell lines
[4] = target: HLA-DR2 purified from human homozygous EBV-transformed B cell lines (human); test: as above
[5] = target: HLA-DR4 purified from human homozygous EBV-transformed B cell lines (human); test: as above
[6] = target: recombinant water-soluble 'empty' HLA-DR1 (DRB1*0101) (human); test: incubation 1:1 with water-soluble HLA-DR, Centricon ultrafiltration, acid extraction, amino acid analysis
[7] = target: recombinant water-soluble 'empty' HLA-DR2 (DRB1*1501) (human); test: as above
[8] = target: recombinant water-soluble 'empty' HLA-DR4 (DRB1*0401) (human); test: as above
[9] = target: HLA-DR4 on L fibroblasts transfected with HLA-DR4 (human); test: cell-based or functional assay
[10] = target: HLA-DR1 on L fibroblasts transfected with HLA-DR1 (L57.23) (human); test: cell-based or functional assay
[11] = target: T1, recombinant water-soluble 'empty' HLA-DR1 (DRB1*0101) (human); test: competitive binding ELISA; competitors biotinylated Multipin peptides
T1 construct: extracellular domain

[12] = target: T2, recombinant water-soluble 'empty' HLA-DR4 (DRB1*0401) (human); test: as above
T2 construct: extracellular domain; extracellular domain is inferred from 'water-soluble'

[13] = target: T2, recombinant water-soluble 'empty' …; test: competitive binding ELISA on recombinant HLA-DR4; competitor biotinylated YEAK

For “heteropolymer YEAK (Copolymer 1), poly(Y,E,A,K)”, the affinity determined by competition [1] was 2.5 µM, the affinity determined by competition [2] was 8 µM and the percent of YEAK at the lower molecular weight position of control (unbound) YEAK [3] was under 10%. For the same molecule, the percent of YEAK at the lower molecular weight position of control (unbound) YEAK [4] was under 10%, the percent of YEAK at the lower molecular weight position of control (unbound) YEAK [5] was under 10% and the percent of added YEAK in the bound fraction [6] was over 95%. It also gave a percent of added YEAK in the bound fraction [7] of 80% and a percent of added YEAK in the bound fraction [8] of over 95%.

For AKKYAEAAAAAAAAA [synthetic 15-mer peptide SEQ ID NO: 22, AKKYAEAAAAAAAAA], the “inhibition of the DR4 3838 T cell clone (IL-2 secretion)” value (shortened to “inhibition of the DR4 3838 T cell clone”) [9] was over 80%.

With AKEYAAAAAAAAAAA [synthetic 15-mer peptide SEQ ID NO: 20, AKEYAAAAAAAAAAA] the “inhibition of the response of 19.3 T cells (IL-2 secretion)” value [10] was about 100%.

For EKAYAAAAAAAAAAA [synthetic 15-mer peptide SEQ ID NO: 27, EKAYAAAAAAAAAAA], the “inhibition of the response of 19.3 T cells (IL-2 secretion)” value [10] was about 100%, the “inhibition of the DR4 3838 T cell clone” value [9] was over 80% and the “inhibition of the DR4 D3 T cell clone (IL-2 secretion)” value (shortened to “inhibition of the DR4 D3 T cell clone”) [9] was over 80%.

For AEKAYAAAAAAAAAA [synthetic 15-mer peptide SEQ ID NO: 33, AEKAYAAAAAAAAAA], the “inhibition of the DR4 3838 T cell clone” value [9] was over 80%.

AGFKGEQGPKGEP [collagen II (CII) peptide 261-273, AGFKGEQGPKGEP]: binds [11]; binds [12].

In the case of AAKYEAAAAAAAAAA [synthetic 15-mer peptide SEQ ID NO: 28, AAKYEAAAAAAAAAA], the “inhibition of the DR4 3838 T cell clone” value [9] is reported as over 80%.

With AEAYKAAAAAAAAAA [synthetic 15-mer peptide SEQ ID NO: 23, AEAYKAAAAAAAAAA] the “inhibition of the DR4 3838 T cell clone” value [9] was over 80%.

AEKYAAAAAAKAAAA [synthetic 15-mer peptide SEQ ID NO: 6, AEKYAAAAAAKAAAA] was tested, and the “inhibition of the DR4 3838 T cell clone” value [9] was over 80%.

With EAAYAAAAAAKAAAA [synthetic 15-mer peptide SEQ ID NO: 16, EAAYAAAAAAKAAAA] the “inhibition of the DR4 3838 T cell clone” value [9] was over 80% and the “inhibition of the DR4 D3 T cell clone” value [9] was over 80%.

In the case of EAKYAAAAAAKAAAA [synthetic 15-mer peptide SEQ ID NO: 18, EAKYAAAAAAKAAAA], the “inhibition of the DR4 D3 T cell clone” value [9] is reported as over 80% and the “affinity determined by competition” value [13] is reported as 3 µM.

In the case of AEEYAAAAAAKAAAA [synthetic 15-mer peptide SEQ ID NO: 11, AEEYAAAAAAKAAAA], the “inhibition of the DR4 3838 T cell clone” value [9] is reported as over 80%.

EKKYAAAAAAKAAAA [synthetic 15-mer peptide SEQ ID NO: 17, EKKYAAAAAAKAAAA] was tested, and the “inhibition of the DR4 3838 T cell clone” value [9] was over 80%.

AAEYKAAAAAAAAAA [synthetic 15-mer peptide SEQ ID NO: 26, AAEYKAAAAAAAAAA] was tested, and the “inhibition of the response of 19.3 T cells (IL-2 secretion)” value [10] was about 100%.

With AAKYAEAAAAKAAAA (also called peptide 15) [synthetic 15-mer peptide SEQ ID NO: 15, AAKYAEAAAAKAAAA] the “inhibition of the response of 19.3 T cells (IL-2 secretion)” value [10] was about 100%, the “inhibition of the DR4 D3 T cell clone” value [9] was over 80% and the “affinity determined by competition” value [13] was under 1 µM.

In the case of AKKYAAAAAAKAAAA [synthetic 15-mer peptide SEQ ID NO: 8, AKKYAAAAAAKAAAA], the “inhibition of the DR4 D3 T cell clone” value [9] is reported as over 80%.

— patent publication US20040006022A1 (Harvard, published 2004)
